Test results taken from the Immune Epitope Database (IEDB).

Assays:
HLA-A*03:01 = assay: IEDB peptide-MHC binding, purified MHC/direct/fluorescence; filed as Kd, often an IC50 or EC50 that approximates it; ≥ and ≤ were set here for values at or beyond the usual limits of such assays; details: source organism: Brucella abortus
HLA-A*11:01 = assay: as above
HLA-B*15:01 = assay: as above
HLA-A*02:01 [1] = assay: as above
HLA-A*69:01 = assay: as above
HLA-A*02:01 [2] = assay: IEDB peptide-MHC binding, purified MHC/competitive/fluorescence; filed as Kd, often an IC50 or EC50 that approximates it; ≥ and ≤ were set here for values at or beyond the usual limits of such assays
HLA-A*01:01 [3] = assay: IEDB peptide-MHC binding, purified MHC/competitive/radioactivity; filed as Kd, often an IC50 or EC50 that approximates it; ≥ and ≤ were set here for values at or beyond the usual limits of such assays
HLA-A*23:01 = assay: as above
HLA-A*24:02 = assay: as above
HLA-A*26:01 = assay: as above
HLA-A*29:02 = assay: as above
HLA-A*30:02 = assay: as above
HLA-B*40:01 = assay: as above; details: source organism: Dengue virus 2 Jamaica/1409/1983
HLA-B*44:03 = assay: as above; details: source organism: Dengue virus 2 Jamaica/1409/1983
HLA-A*32:01 = assay: as above
HLA-A*01:01 [4] = assay: IEDB peptide-MHC binding, purified MHC/direct/fluorescence; filed as Kd, often an IC50 or EC50 that approximates it; ≥ and ≤ were set here for values at or beyond the usual limits of such assays
HLA-B*07:02 = assay: as above; details: source organism: Homo sapiens
HLA-B*58:01 = assay: as above; details: source organism: Homo sapiens
[5] = source organism: Brucella abortus
[6] = source organism: Marburg virus - Musoke, Kenya, 1980
[7] = source organism: SARS coronavirus Tor2
[8] = source organism: Dengue virus 1 Brazil/97-11/1997
[9] = source organism: Vaccinia virus WR
[10] = source organism: Mammarenavirus guanaritoense
[11] = source organism: Triticum aestivum
[12] = source organism: Mammarenavirus juninense
[13] = source organism: Mammarenavirus machupoense
[14] = source organism: Entamoeba histolytica HM-1:IMSS

| Sequence | Kd (HLA-A*01:01 [3]; [7]) [µM] | Kd (HLA-A*23:01; [7]) [µM] | Kd (HLA-A*24:02; [7]) [µM] | Kd (HLA-A*26:01; [7]) [µM] | Kd (HLA-A*29:02; [7]) [µM] | Kd (HLA-A*30:02; [7]) [µM] | also measured |
| --- | --- | --- | --- | --- | --- | --- | --- |
| VQGPGGSTY | – | – | – | – | – | – | Kd (HLA-A*03:01): 14.5 µM; Kd (HLA-A*11:01; [5]): 8.94 µM; Kd (HLA-B*15:01; [5]): 0.19 µM |
| MLAKYDHLV | – | – | – | – | – | – | Kd (HLA-A*02:01 [1]; [6]): 0.027 µM; Kd (HLA-A*69:01; [6]): 0.104 µM |
| HLGNVKYLV | – | – | – | – | – | – | Kd (HLA-A*02:01 [2]; source organism: Plasmodium falciparum): 0.0065 µM |
| KLRGVAPL | – | – | – | – | – | – | Kd (HLA-A*02:01 [2]; source organism: Influenza A virus (A/Swine/Indiana/1726/1988(H1N1))): 2.25 µM |
| KWDLLKYDF | ≥ 78.1 | 12.7 | ≥ 28.4 | ≥ 77.9 | 0.00495 | 0.0893 | – |
| HSVGFDYVY | 14.9 | ≥ 77.8 | ≥ 77.6 | 0.586 | 0.157 | 0.0119 | – |
| EYADVFHLYL | 0.0855 | 0.00955 | 0.0167 | 1.97 | 0.16 | 1.35 | – |
| FLWWNAAPA | – | – | – | – | – | – | Kd (HLA-A*69:01; source organism: Mycobacterium tuberculosis): ≤ 0.001 µM |
| CTPPALNCY | ≥ 69.4 | ≥ 32.4 | ≥ 77.6 | ≥ 43.6 | 1.3 | 4.79 | – |
| SEFQIYKKSG | – | – | – | – | – | – | Kd (HLA-B*40:01): 0.407 µM; Kd (HLA-B*44:03): 3.73 µM |
| QYSDRRWCFD | – | – | – | – | – | – | Kd (HLA-A*32:01; [8]): ≥ 53.5 µM |
| ALATFTVNI | – | – | – | – | – | – | Kd (HLA-A*32:01; [9]): 0.00607 µM |
| VVAIDYRHY | ≥ 52.6 | ≥ 77.8 | ≥ 77.6 | ≥ 22.1 | 0.0647 | 0.0117 | – |
| LKILVLSIL | – | – | – | – | – | – | Kd (HLA-A*01:01 [3]; [10]): 0.272 µM; Kd (HLA-A*23:01; [10]): 11.1 µM; Kd (HLA-A*24:02; [10]): 1.83 µM; Kd (HLA-A*26:01; [10]): ≥ 32.6 µM; Kd (HLA-A*29:02; [10]): 15.1 µM; Kd (HLA-A*30:02; [10]): 11 µM |
| QYSQPQQPI | – | – | – | – | – | – | Kd (HLA-A*01:01 [3]; [11]): ≥ 56.4 µM; Kd (HLA-A*23:01; [11]): 16.1 µM; Kd (HLA-A*24:02; [11]): 2.62 µM; Kd (HLA-A*26:01; [11]): ≥ 77.9 µM; Kd (HLA-A*29:02; [11]): 0.407 µM; Kd (HLA-A*30:02; [11]): 0.0933 µM |
| ISEPTIHLV | – | – | – | – | – | – | Kd (HLA-A*01:01 [3]; [10]): 0.626 µM; Kd (HLA-A*23:01; [10]): 15.4 µM; Kd (HLA-A*24:02; [10]): ≥ 77.5 µM; Kd (HLA-A*26:01; [10]): ≥ 77.9 µM; Kd (HLA-A*29:02; [10]): ≥ 78.9 µM; Kd (HLA-A*30:02; [10]): 4.89 µM |

| Sequence | Kd (HLA-A*01:01 [3]; [7]) [µM] | Kd (HLA-A*23:01; [7]) [µM] | Kd (HLA-A*24:02; [7]) [µM] | Kd (HLA-A*26:01; [7]) [µM] | Kd (HLA-A*29:02; [7]) [µM] | Kd (HLA-A*30:02; [7]) [µM] | also measured |
| --- | --- | --- | --- | --- | --- | --- | --- |
| IGFLVLWIGT | – | – | – | – | – | – | Kd (HLA-A*32:01; source organism: Dengue virus 4 Philippines/H241/1956): ≥ 69.9 µM |
| YYQLESTQI | ≥ 52.8 | 0.126 | 0.0077 | ≥ 77.9 | 0.247 | ≥ 81.1 | – |
| SGKDTPGGY | – | – | – | – | – | – | Kd (HLA-A*01:01 [3]; [12]): 13.6 µM; Kd (HLA-A*23:01; [12]): ≥ 77.7 µM; Kd (HLA-A*24:02; [12]): ≥ 77.5 µM; Kd (HLA-A*26:01; [12]): ≥ 77.9 µM; Kd (HLA-A*29:02; [12]): ≥ 69.7 µM; Kd (HLA-A*30:02; [12]): 0.00285 µM |
| CGDPSSFEY | – | – | – | – | – | – | Kd (HLA-A*01:01 [3]; [13]): 0.0394 µM; Kd (HLA-A*23:01; [13]): ≥ 77.7 µM; Kd (HLA-A*24:02; [13]): ≥ 64.1 µM; Kd (HLA-A*26:01; [13]): ≥ 77.9 µM; Kd (HLA-A*29:02; [13]): 0.834 µM; Kd (HLA-A*30:02; [13]): 0.421 µM |
| KTMAPVHTY | – | – | – | – | – | – | Kd (HLA-A*32:01; [9]): 0.00455 µM |
| LSNFGAPSY | 0.0812 | ≥ 77.8 | ≥ 77.6 | 4.58 | 0.0139 | 0.00177 | – |
| AARISSCLK | – | – | – | – | – | – | Kd (HLA-A*01:01 [4]; source organism: Yersinia pestis): ≥ 20 µM |
| ISLICGHSY | – | – | – | – | – | – | Kd (HLA-A*01:01 [4]; source organism: Homo sapiens): 11 µM; Kd (HLA-A*11:01; source organism: Homo sapiens): 8.98 µM; Kd (HLA-A*69:01; source organism: Homo sapiens): 5.28 µM; Kd (HLA-B*07:02): 17.4 µM; Kd (HLA-B*15:01; source organism: Homo sapiens): 0.108 µM; Kd (HLA-B*58:01): 0.022 µM |
| MMSAPPAEY | 0.182 | ≥ 51.1 | 12.7 | 2.24 | 0.00123 | 0.000112 | – |
| LTKGTLEPEY | 3.2 | ≥ 70 | ≥ 70.3 | 1.99 | 2.05 | 0.536 | – |
| SVNSFTLLI | – | – | – | – | – | – | Kd (HLA-A*32:01; source organism: Vaccinia virus Copenhagen): 0.00263 µM |
| RTYSDPLAL | – | – | – | – | – | – | Kd (HLA-A*32:01; [8]): 0.0334 µM |
| VSVKMFDAY | 0.102 | 10.5 | 10.3 | 11.5 | 0.0766 | 0.639 | – |
| KLYDSVYLT | – | – | – | – | – | – | Kd (HLA-A*02:01 [1]; [14]): 0.0076 µM; Kd (HLA-A*69:01; [14]): ≥ 20 µM |
| KMFSNNVLI | – | – | – | – | – | – | Kd (HLA-A*32:01; [9]): 0.0011 µM |
